Assay results taken from the supplement of paper PMC9112550, “Optimization of the antimicrobial peptide Bac7 by deep mutational scanning” (BMC Biology, 2022).

System: Escherichia coli TOP10
Assay: shrunken log2 fold change of peptide-encoding DNA abundance (4.5 h post-induction vs induction); higher = less antimicrobial activity (less host growth inhibition)
Settings: time post-induction: 4.5 h; library: site-saturation at positions 5, 18, 19, 20
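Further: peptides expressed intracellularly from a pBAD plasmid library in pooled LB shake-flask culture, induced with 0.3% L-arabinose, DNA abundance read by NGS, three biological replicates, DESeq2 with apeglm shrinkage.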

Row | Sequence | shrunken log2 fold change
1 | RRIRHRPPRLPRPRPRPLHNPRP | -0.602
2 | RRIRQRPPRLPRPRPRPKWGPRP | -0.0154
3 | RRIRMRPPRLPRPRPRPRMFPRP | 0.154
4 | RRIRRRPPRLPRPRPRPFVRPRP | -0.174
5 | RRIRGRPPRLPRPRPRPYGTPRP | -0.0646
6 | RRIRGRPPRLPRPRPRPMNDPRP | 0.337
7 | RRIRNRPPRLPRPRPRPTQFPRP | 0.138
8 | RRIRTRPPRLPRPRPRPWICPRP | 0.0207
9 | RRIRCRPPRLPRPRPRPMTCPRP | -0.205
10 | RRIRDRPPRLPRPRPRPFHDPRP | -0.157
11 | RRIRYRPPRLPRPRPRPEMIPRP | 0.0135
12 | RRIRWRPPRLPRPRPRPYNEPRP | -0.13
13 | RRIRQRPPRLPRPRPRPMERPRP | 0.301
14 | RRIRERPPRLPRPRPRPDQQPRP | -0.278
15 | RRIRHRPPRLPRPRPRPMWHPRP | -0.152
16 | RRIRQRPPRLPRPRPRPQLIPRP | -0.237
17 | RRIRSRPPRLPRPRPRPVNVPRP | -0.156
18 | RRIRTRPPRLPRPRPRPSMWPRP | 0.103
19 | RRIRARPPRLPRPRPRPVKSPRP | 0.19
20 | RRIRVRPPRLPRPRPRPADHPRP | 0.206
21 | RRIRCRPPRLPRPRPRPWLHPRP | -0.305
22 | RRIRSRPPRLPRPRPRPFAWPRP | -0.0248
23 | RRIRVRPPRLPRPRPRPEATPRP | 0.92
24 | RRIRQRPPRLPRPRPRPIMRPRP | 0.0932
25 | RRIRIRPPRLPRPRPRPTDDPRP | -0.217

Row | Sequence | shrunken log2 fold change
26 | RRIRERPPRLPRPRPRPVAIPRP | -0.121
27 | RRIRDRPPRLPRPRPRPSREPRP | -0.0011
28 | RRIRQRPPRLPRPRPRPWTQPRP | 0.0496
29 | RRIRHRPPRLPRPRPRPYKDPRP | -0.017
30 | RRIRDRPPRLPRPRPRPLYPPRP | -0.277
31 | RRIRKRPPRLPRPRPRPKVKPRP | 0.116
32 | RRIRNRPPRLPRPRPRPRDLPRP | 0.186
33 | RRIRERPPRLPRPRPRPACEPRP | -0.112
34 | RRIRERPPRLPRPRPRPLRPPRP | 0.889
35 | RRIRVRPPRLPRPRPRPWIRPRP | -0.151
36 | RRIRERPPRLPRPRPRPSCRPRP | -0.249
37 | RRIRLRPPRLPRPRPRPEFDPRP | 0.31
38 | RRIRHRPPRLPRPRPRPATLPRP | -0.24
39 | RRIRYRPPRLPRPRPRPKQDPRP | -0.488
40 | RRIRARPPRLPRPRPRPCELPRP | 0.105
41 | RRIRDRPPRLPRPRPRPHVTPRP | -0.631
42 | RRIRFRPPRLPRPRPRPFPCPRP | -0.151
43 | RRIRQRPPRLPRPRPRPYFLPRP | -0.923
44 | RRIRIRPPRLPRPRPRPFQFPRP | -0.237
45 | RRIRRRPPRLPRPRPRPVNMPRP | -0.156
46 | RRIRRRPPRLPRPRPRPIGKPRP | -0.0155
47 | RRIRWRPPRLPRPRPRPEEHPRP | 0.23
48 | RRIRGRPPRLPRPRPRPAQTPRP | 0.221
49 | RRIRNRPPRLPRPRPRPCEPPRP | -0.183
50 | RRIRLRPPRLPRPRPRPEGIPRP | -0.229

Row | Sequence | shrunken log2 fold change
51 | RRIRSRPPRLPRPRPRPQWEPRP | 0.022
52 | RRIRQRPPRLPRPRPRPGGQPRP | -0.137
53 | RRIRMRPPRLPRPRPRPNMDPRP | 0.0442
54 | RRIRSRPPRLPRPRPRPEACPRP | 1.03
55 | RRIRARPPRLPRPRPRPQYPPRP | -0.414
56 | RRIRIRPPRLPRPRPRPGKIPRP | -0.0443
57 | RRIRWRPPRLPRPRPRPWDWPRP | 0.00466
58 | RRIRCRPPRLPRPRPRPQAYPRP | 0.0414
59 | RRIRCRPPRLPRPRPRPHPHPRP | -0.0639
60 | RRIRPRPPRLPRPRPRPKQIPRP | 0.0957
61 | RRIRYRPPRLPRPRPRPPKFPRP | -0.0892
62 | RRIRNRPPRLPRPRPRPWTGPRP | -0.0655
63 | RRIRLRPPRLPRPRPRPFCWPRP | 0.231
64 | RRIRERPPRLPRPRPRPYRTPRP | -1.15
65 | RRIRDRPPRLPRPRPRPTPTPRP | 0.194
66 | RRIRARPPRLPRPRPRPSIQPRP | -0.119
67 | RRIRARPPRLPRPRPRPIWMPRP | -0.00518
68 | RRIRKRPPRLPRPRPRPCYIPRP | -0.0235
69 | RRIRMRPPRLPRPRPRPCCNPRP | -0.00151
70 | RRIRFRPPRLPRPRPRPGDSPRP | -0.305
71 | RRIRCRPPRLPRPRPRPCCHPRP | -0.204
72 | RRIRGRPPRLPRPRPRPQHTPRP | 0.588
73 | RRIRGRPPRLPRPRPRPWFTPRP | -0.221
74 | RRIRYRPPRLPRPRPRPEVDPRP | -0.191
75 | RRIRKRPPRLPRPRPRPKNIPRP | -0.253

Row | Sequence | shrunken log2 fold change
76 | RRIRLRPPRLPRPRPRPNWQPRP | 0.351
77 | RRIRMRPPRLPRPRPRPKNDPRP | 1.05
78 | RRIRWRPPRLPRPRPRPTSSPRP | 0.23
79 | RRIRGRPPRLPRPRPRPTMSPRP | 0.496
80 | RRIRKRPPRLPRPRPRPYRAPRP | -0.117
81 | RRIRSRPPRLPRPRPRPKPSPRP | 0.263
82 | RRIRVRPPRLPRPRPRPKWPPRP | 0.4
83 | RRIRCRPPRLPRPRPRPQMSPRP | -0.201
84 | RRIRFRPPRLPRPRPRPMVKPRP | -0.219
85 | RRIRMRPPRLPRPRPRPWAFPRP | -0.121
86 | RRIRQRPPRLPRPRPRPQMRPRP | -0.0736
87 | RRIRSRPPRLPRPRPRPPNCPRP | 0.231
88 | RRIRQRPPRLPRPRPRPAYPPRP | -0.167
89 | RRIRMRPPRLPRPRPRPSDGPRP | -0.205
90 | RRIRQRPPRLPRPRPRPNPIPRP | 0.0989
91 | RRIRKRPPRLPRPRPRPVNIPRP | -0.0139
92 | RRIRHRPPRLPRPRPRPGQQPRP | -0.028
93 | RRIRTRPPRLPRPRPRPTPHPRP | 0.283
94 | RRIRFRPPRLPRPRPRPSKCPRP | -0.26
95 | RRIRPRPPRLPRPRPRPLMKPRP | -0.181
96 | RRIRGRPPRLPRPRPRPPPAPRP | 1.57
97 | RRIRIRPPRLPRPRPRPFWVPRP | -0.2
98 | RRIRLRPPRLPRPRPRPKTFPRP | -0.201
99 | RRIRRRPPRLPRPRPRPPSLPRP | 0.522
100 | RRIRHRPPRLPRPRPRPNWGPRP | 0.0702

Row | Sequence | shrunken log2 fold change
101 | RRIRERPPRLPRPRPRPLIKPRP | -0.12
102 | RRIRSRPPRLPRPRPRPPPGPRP | 0.891
103 | RRIRLRPPRLPRPRPRPGDLPRP | 0.00844
104 | RRIRTRPPRLPRPRPRPGEKPRP | -0.0135
105 | RRIRKRPPRLPRPRPRPCILPRP | -0.283
106 | RRIRPRPPRLPRPRPRPLGIPRP | -0.0635
107 | RRIRARPPRLPRPRPRPMNSPRP | -0.279
108 | RRIRVRPPRLPRPRPRPLHHPRP | -0.253
109 | RRIRIRPPRLPRPRPRPMFKPRP | -0.286
110 | RRIRHRPPRLPRPRPRPFGKPRP | 0.0294
111 | RRIRIRPPRLPRPRPRPNLWPRP | -0.132
112 | RRIRIRPPRLPRPRPRPFLNPRP | -0.429
113 | RRIRWRPPRLPRPRPRPQGVPRP | 0.198
114 | RRIRPRPPRLPRPRPRPMYWPRP | -0.0489
115 | RRIRCRPPRLPRPRPRPVAVPRP | -0.043
116 | RRIRMRPPRLPRPRPRPNPKPRP | 0.023
117 | RRIRCRPPRLPRPRPRPVNEPRP | -0.266
118 | RRIRTRPPRLPRPRPRPPWSPRP | 0.194
119 | RRIRLRPPRLPRPRPRPHESPRP | -0.0598
120 | RRIRWRPPRLPRPRPRPSFHPRP | -0.458
121 | RRIRGRPPRLPRPRPRPHKWPRP | 0.183
122 | RRIRWRPPRLPRPRPRPGDLPRP | 0.0106
123 | RRIRNRPPRLPRPRPRPGGAPRP | 0.283
124 | RRIRCRPPRLPRPRPRPYRQPRP | 0.00128
125 | RRIRDRPPRLPRPRPRPMYHPRP | 0.0212

Row | Sequence | shrunken log2 fold change
126 | RRIRFRPPRLPRPRPRPKIEPRP | -0.202
127 | RRIRCRPPRLPRPRPRPRWDPRP | -0.128
128 | RRIRDRPPRLPRPRPRPDKYPRP | -0.582
129 | RRIRSRPPRLPRPRPRPWCWPRP | 0.0877
130 | RRIRFRPPRLPRPRPRPRWGPRP | 0.143
131 | RRIRYRPPRLPRPRPRPDDGPRP | 0.0672
132 | RRIRHRPPRLPRPRPRPNWCPRP | -0.00989
133 | RRIRCRPPRLPRPRPRPATFPRP | -0.331
134 | RRIRPRPPRLPRPRPRPYEFPRP | -0.0919
135 | RRIRCRPPRLPRPRPRPFLFPRP | -0.291
136 | RRIRLRPPRLPRPRPRPHYVPRP | -0.169
137 | RRIRERPPRLPRPRPRPRARPRP | 0.233
138 | RRIRGRPPRLPRPRPRPDCDPRP | 0.841
139 | RRIRTRPPRLPRPRPRPIWNPRP | -0.169
140 | RRIRHRPPRLPRPRPRPQICPRP | 0.00386
141 | RRIRQRPPRLPRPRPRPMQTPRP | -0.0319
142 | RRIRSRPPRLPRPRPRPEMIPRP | 0.0158
143 | RRIRDRPPRLPRPRPRPVWIPRP | -0.125
144 | RRIRARPPRLPRPRPRPHYTPRP | 0.203
145 | RRIRTRPPRLPRPRPRPTRCPRP | -0.104
146 | RRIRNRPPRLPRPRPRPYDRPRP | -0.12
147 | RRIRVRPPRLPRPRPRPIANPRP | 0.0572
148 | RRIRLRPPRLPRPRPRPTTCPRP | 0.0385
149 | RRIRCRPPRLPRPRPRPMFGPRP | -0.556
150 | RRIRWRPPRLPRPRPRPYENPRP | -0.19
